Article PMC2196189 (The Journal of Cell Biology, 2001)
One block for each binder: values may come before it.

How the values were obtained:
[1] = target: Nup2p (construct of the data-not-shown experiments not stated) (S. cerevisiae, UniProt P32499 1-720); assay: radioligand binding
Kap95p (recombinant) = target: T1, Kap95p (recombinant) (S. cerevisiae, UniProt Q06142 1-861); assay: pull-down
T1 sequence (looked up): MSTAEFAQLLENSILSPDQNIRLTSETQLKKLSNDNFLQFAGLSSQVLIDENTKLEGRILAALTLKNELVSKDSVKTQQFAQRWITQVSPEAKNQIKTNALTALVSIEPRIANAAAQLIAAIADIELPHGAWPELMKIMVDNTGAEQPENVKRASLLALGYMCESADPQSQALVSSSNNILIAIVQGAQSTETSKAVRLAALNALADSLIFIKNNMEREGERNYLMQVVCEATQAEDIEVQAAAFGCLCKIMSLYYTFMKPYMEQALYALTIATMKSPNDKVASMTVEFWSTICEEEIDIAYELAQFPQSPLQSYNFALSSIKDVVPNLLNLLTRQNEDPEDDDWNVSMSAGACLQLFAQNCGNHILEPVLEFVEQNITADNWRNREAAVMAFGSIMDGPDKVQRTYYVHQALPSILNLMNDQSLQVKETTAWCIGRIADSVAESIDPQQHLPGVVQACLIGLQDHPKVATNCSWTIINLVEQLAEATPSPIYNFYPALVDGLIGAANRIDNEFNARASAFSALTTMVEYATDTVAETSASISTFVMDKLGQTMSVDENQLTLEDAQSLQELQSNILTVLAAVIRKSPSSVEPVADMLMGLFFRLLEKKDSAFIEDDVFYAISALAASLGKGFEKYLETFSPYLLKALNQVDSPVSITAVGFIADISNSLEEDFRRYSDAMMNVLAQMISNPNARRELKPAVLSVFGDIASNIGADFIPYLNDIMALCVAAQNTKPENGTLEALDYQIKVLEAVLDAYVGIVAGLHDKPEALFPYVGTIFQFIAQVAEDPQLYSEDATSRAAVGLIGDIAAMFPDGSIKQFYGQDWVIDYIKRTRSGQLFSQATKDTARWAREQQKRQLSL

GST–Nup60p = GST–Nup60p (S. cerevisiae, UniProt P39705 1-539); assay: pull-down
[2] = target: T2, Kap95p–Kap60p heterodimers (recombinant) (S. cerevisiae, UniProt Q06142 1-861; Q02821 1-542); assay: pull-down
T2 sequence (looked up) 1: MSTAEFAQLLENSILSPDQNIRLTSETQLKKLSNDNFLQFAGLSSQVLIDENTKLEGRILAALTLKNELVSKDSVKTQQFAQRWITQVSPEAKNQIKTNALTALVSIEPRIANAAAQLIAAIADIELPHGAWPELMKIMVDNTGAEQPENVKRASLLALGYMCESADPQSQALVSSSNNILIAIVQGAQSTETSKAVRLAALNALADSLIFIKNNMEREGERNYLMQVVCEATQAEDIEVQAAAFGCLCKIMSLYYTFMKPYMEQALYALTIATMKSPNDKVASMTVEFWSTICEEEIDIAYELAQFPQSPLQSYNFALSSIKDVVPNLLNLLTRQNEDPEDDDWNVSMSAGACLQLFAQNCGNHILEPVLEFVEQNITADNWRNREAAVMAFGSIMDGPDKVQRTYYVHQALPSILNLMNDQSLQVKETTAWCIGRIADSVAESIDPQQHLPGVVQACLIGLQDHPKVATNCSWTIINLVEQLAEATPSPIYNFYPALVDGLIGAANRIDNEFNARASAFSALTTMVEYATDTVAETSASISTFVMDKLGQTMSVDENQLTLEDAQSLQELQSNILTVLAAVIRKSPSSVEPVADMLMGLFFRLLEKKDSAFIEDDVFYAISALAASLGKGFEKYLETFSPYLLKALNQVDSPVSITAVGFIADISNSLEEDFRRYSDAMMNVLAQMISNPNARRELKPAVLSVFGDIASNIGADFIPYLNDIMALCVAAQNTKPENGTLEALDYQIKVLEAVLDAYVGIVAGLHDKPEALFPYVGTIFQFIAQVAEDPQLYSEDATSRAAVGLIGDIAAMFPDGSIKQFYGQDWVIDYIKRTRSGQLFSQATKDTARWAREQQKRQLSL
T2 sequence (looked up) 2: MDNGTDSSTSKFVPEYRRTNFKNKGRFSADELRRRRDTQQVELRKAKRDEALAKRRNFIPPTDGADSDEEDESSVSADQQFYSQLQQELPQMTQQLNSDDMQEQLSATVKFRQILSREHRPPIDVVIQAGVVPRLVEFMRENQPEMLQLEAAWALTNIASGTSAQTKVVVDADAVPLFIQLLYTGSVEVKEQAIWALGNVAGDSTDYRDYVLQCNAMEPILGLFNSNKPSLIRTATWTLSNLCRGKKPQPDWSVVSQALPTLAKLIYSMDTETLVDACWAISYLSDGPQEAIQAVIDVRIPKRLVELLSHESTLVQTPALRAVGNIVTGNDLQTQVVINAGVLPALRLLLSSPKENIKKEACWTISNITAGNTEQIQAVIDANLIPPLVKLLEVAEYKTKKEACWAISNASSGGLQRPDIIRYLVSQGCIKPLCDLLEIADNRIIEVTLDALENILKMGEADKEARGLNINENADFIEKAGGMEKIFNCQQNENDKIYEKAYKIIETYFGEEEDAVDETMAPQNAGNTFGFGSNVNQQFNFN

Nup2p (construct of the data-not-shown experiments not stated), sequence (P32499 whole entry): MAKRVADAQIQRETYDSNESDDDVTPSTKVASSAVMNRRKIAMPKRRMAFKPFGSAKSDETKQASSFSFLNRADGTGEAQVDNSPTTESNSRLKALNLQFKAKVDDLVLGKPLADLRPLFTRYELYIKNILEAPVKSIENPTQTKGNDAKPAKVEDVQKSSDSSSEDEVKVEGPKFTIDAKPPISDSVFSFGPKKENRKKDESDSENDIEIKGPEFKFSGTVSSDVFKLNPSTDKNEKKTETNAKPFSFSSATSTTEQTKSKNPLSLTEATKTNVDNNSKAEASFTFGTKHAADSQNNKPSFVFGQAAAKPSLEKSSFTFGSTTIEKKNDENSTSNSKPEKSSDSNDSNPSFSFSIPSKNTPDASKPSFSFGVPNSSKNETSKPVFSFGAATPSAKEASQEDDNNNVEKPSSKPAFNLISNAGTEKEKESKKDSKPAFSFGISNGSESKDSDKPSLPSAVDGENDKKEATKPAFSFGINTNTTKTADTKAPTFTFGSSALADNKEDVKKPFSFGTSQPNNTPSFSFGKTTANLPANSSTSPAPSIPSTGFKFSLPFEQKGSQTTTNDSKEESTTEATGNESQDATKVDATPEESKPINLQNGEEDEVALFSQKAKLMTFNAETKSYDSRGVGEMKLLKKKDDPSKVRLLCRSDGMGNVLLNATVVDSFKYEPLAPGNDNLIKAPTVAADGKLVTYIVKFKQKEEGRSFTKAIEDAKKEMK

Kd [1]: ~0.2 nM
B1: Kap60p (recombinant) (natural protein, S. cerevisiae, UniProt Q02821 1-542, looked up)
chain: MDNGTDSSTSKFVPEYRRTNFKNKGRFSADELRRRRDTQQVELRKAKRDEALAKRRNFIPPTDGADSDEEDESSVSADQQFYSQLQQELPQMTQQLNSDDMQEQLSATVKFRQILSREHRPPIDVVIQAGVVPRLVEFMRENQPEMLQLEAAWALTNIASGTSAQTKVVVDADAVPLFIQLLYTGSVEVKEQAIWALGNVAGDSTDYRDYVLQCNAMEPILGLFNSNKPSLIRTATWTLSNLCRGKKPQPDWSVVSQALPTLAKLIYSMDTETLVDACWAISYLSDGPQEAIQAVIDVRIPKRLVELLSHESTLVQTPALRAVGNIVTGNDLQTQVVINAGVLPALRLLLSSPKENIKKEACWTISNITAGNTEQIQAVIDANLIPPLVKLLEVAEYKTKKEACWAISNASSGGLQRPDIIRYLVSQGCIKPLCDLLEIADNRIIEVTLDALENILKMGEADKEARGLNINENADFIEKAGGMEKIFNCQQNENDKIYEKAYKIIETYFGEEEDAVDETMAPQNAGNTFGFGSNVNQQFNFN

binding result (Kap95p (recombinant)): binds
B2: GST–Nup60p (aa 188–388) (domain or fragment, S. cerevisiae, UniProt P39705 188-388, looked up)
chain: PTFNPKYDTSNASMNTTLGSIGSRKYSFNYSSLPSPYKTTVYRYSAAKKIPDTYTANTSAQSIASAKSVRSGVSKSAPSKKISNTAAALVSLLDENDSKKNNAASELANPYSSYVSQIRKHKRVSPNAAPRQEISEEETTVKPLFQNVPEQGEEPMKQLNATKISPSAPSKDSFTKYKPARSSSLRSNVVVAETSPEKKDG

binding result (Kap95p (recombinant)): binds
B3: GST–Nup60p (aa 1–187) (domain or fragment, S. cerevisiae, UniProt P39705 1-187, looked up)
chain: MHRKSLRRASATVPSAPYRKQIISNAHNKPSLFSKIKTFFTQKDSARVSPRNNVANKQPRNESFNRRISSMPGGYFHSEISPDSTVNRSVVVSAVGEARNDIENKEEEYDETHETNISNAKLANFFSKKGNEPLSEIEIEGVMSLLQKSSKSMITSEGEQKSAEGNNIDQSLILKESGSTPISISNA

binding result (GST–Nup60p): binds
B4: Prp20p (natural protein)
chain: MVKRTVATNGDASGAHRAKKMSKTHASHIINAQEDYKHMYLSVQPLDIFCWGTGSMCELGLGPLAKNKEVKRPRLNPFLPRDEAKIISFAVGGMHTLALDEESNVWSWGCNDVGALGRDTSNAKEQLKDMDADDSSDDEDGDLNELESTPAKIPRESFPPLAEGHKVVQLAATDNMSCALFSNGEVYAWGTFRCNEGILGFYQDKIKIQKTPWKVPTFSKYNIVQLAPGKDHILFLDEEGMVFAWGNGQQNQLGRKVMERFRLKTLDPRPFGLRHVKYIASGENHCFALTKDNKLVSWGLNQFGQCGVSEDVEDGALVTKPKRLALPDNVVIRSIAAGEHHSLILSQDGDLYSCGRLDMFEVGIPKDNLPEYTYKDVHGKARAVPLPTKLNNVPKFKSVAAGSHHSVAVAQNGIAYSWGFGETYAVGLGPFEDDTEVPTRIKNTATQDHNIILVGCGGQFSVSGGVKLSDEDAEKRADEMDD

binding result [2]: binds
B5: GST–Nup60p (aa 389–539) (domain or fragment, S. cerevisiae, UniProt P39705 389-539, looked up)
chain: GDKPPSSAFNFSFNTSRNVEPTENAYKSENAPSASSKEFNFTNLQAKPLVGKPKTELTKGDSTPVQPDLSVTPQKSSSKGFVFNSVQKKSRSNLSQENDNEGKHISASIDNDFSEEKAEEFDFNVPVVSKQLGNGLVDENKVEAFKSLYTF
